Measured values: patent US9233155B2, “Method of treating solid cancers using anti-c-Met antibody and sorafenib combination therapy” (Samsung Electronics Co., Ltd., priority 2013, dated 2016)

Key:
[1] = test system: MKN45 gastric cancer cells; assay: Cell growth inhibition in MKN45 gastric cancer cell line (CellTiter Glo); type: cell-based
Method: In particular, RPMI1640 medium (GIBCO) containing 10% FBS was added to a 96 well plate. MKN45 gastric cancer cells (JCRB, JCRB0254) were seeded thereon in the amount of 5,000 cells/well, and incubated overnight at 37° C. After 24 hours (the next day), the incubated cells were treated with (a) L3-1Y (Reference Example 1) alone or (b) L3-1Y and sorafenib. For the single treatment of L3-1Y alone, the concentration of L3-1Y was 0 μg/mL, 0.016 μg/mL, 0.08 μg/mL, 0.4 μg/mL, or 2 μg/mL. For the co-administration of L3-1Y and sorafenib, the concentration of sorafenib was fixed at 4 μM, which is a concentration of IC30 in MKN45 cell line, and the concentration of L3-1Y was 0 μg/mL, 0.016 μg/mL, 0.08 μg/mL, 0.4 μg/mL, or 2 μg/mL.
(§1) At 72 hours after the single treatment or the co-treatment, 100 μL of CellTiter Glo solution (Promega, G7572) was added to each well, and left for 30 minutes at room temperature. The cell number was counted by emission signal, and the emission signal was recorded using Envision 2104 Multi-label Reader (Perkin Elmer).

EBC1 lung cancer cells = assay: Cell growth inhibition in EBC1 lung cancer cell line (CellTiter Glo); type: cell-based; details: L3-1Y 0-2 μg/mL alone, sorafenib 4 μM alone, or both; 72 hours
Method: (§2) In particular, RPMI1640 medium (GIBCO) containing 10% FBS added to a 96 well plate. EBC1 lung cancer cells (JCRB, JCRB0820) were seeded thereon in the amount of 5,000 cells/well, and incubated overnight at 37° C. After 24 hours (the next day), the incubated cells were treated with (a) L3-1Y (Reference Example 1) alone or (b) L3-1Y and sorafenib. For the single treatment of L3-1Y alone, the concentration of L3-1Y was 0 μg/mL, 0.016 μg/mL, 0.08 μg/mL, 0.4 μg/mL, or 2 μg/mL. For the co-treatment of L3-1Y and sorafenib, the concentration of sorafenib was fixed at 4 μM, and the concentration of L3-1Y was 0 μg/mL, 0.016 μg/mL, 0.08 μg/mL, 0.4 μg/mL, or 2 μg/m L.
as §1

[2] = test system: MKN45 gastric cancer cells; assay: Tumor xenograft model of gastric cancer cell line MKN45; type: in vivo, BALB/c nude mice; details: sorafenib 3.3 mg/kg P.O. once a day, L3-1Y 1 mg/kg I.V. once a week, day 21
Method: (§3) To verify the in vivo effect of the co-administration on tumor growth, a tumor xenograft model using male 5-6 week-old BALB/c nude mice (Pharmalegacy, China) was prepared. The mice were adapted at least one week before inoculation of tumor cells.
(§4) Then, the mice were anesthetized with 1-2% isofurane, and MKN45 gastric cancer cells (JCRB, JCRB0254) were subcutaneously injected into the right flank of the mice in the amount of 5×10^6 cells per mouse. 7 days after, when the average size of the tumor reaches 50 mm^3 or more, the mice were grouped as follows: a group treated with sorafenib (3.3 mg/kg, P.O., once a day), a group treated with L3-1Y (1 mg/kg, I.V., once a week), a group co-treated with L3-1Y (1 mg/kg, I.V., once a week) and sorafenib (3.3 mg/kg, P.O., once a day), and a group (control) treated with vehicle (PBS 0.2 ml, I.V., once a week). Each group consisted of 10 mice.
(§5) The experiment was performed for 4 weeks in total, and tumor size and body weight of the mice were measured twice a week. The tumor volume (V) was calculated by the following formula: V (mm^3)={length of long axis (mm)×(length of short axis (mm))^2}/2.

HT29 colon cancer cells [3] = assay: Tumor xenograft model of colon cancer cell line HT29; type: in vivo, BALB/c nude mice; details: for Tumor Inhibition Rate at 21st day (%; compared to vehicle-treated group (0%)): sorafenib 3.3 mg/kg P.O. once a day, L3-1Y 1 mg/kg I.V. once a week, day 21
Method: as §3
as §4, with “and HT29 colon” for “and MKN45 gastric”, “cells I(ATCC, HTB-38)” for “cells (JCRB, JCRB0254)”, “mice at” for “mice in”, “week).” for “week). Each group consisted of 10 mice.”
as §5

HT29 colon cancer cells [4] = assay: Cell growth inhibition in HT29 colon cancer cell line (CellTiter Glo); type: cell-based; details: L3-1Y 0-2 μg/mL alone or with sorafenib fixed at 4 μM, 72 hours
Method: as §2, with “FBS was” for “FBS”, “HT29 colon” for “EBC1 lung”, “(ATCC, HTB-38)” for “(JCRB, JCRB0820)”, “μg/mL.” for “μg/m L.”
as §1

[5] = test system: HCC1806 breast cancer cell line; assay: Cell growth inhibition in HCC1806 breast cancer cell line (CellTiter Glo); type: cell-based; details: L3-1Y 0-2 μg/mL alone or with sorafenib fixed at 3 μM, 72 hours

CNC(=O)c1cc(Oc2ccc(NC(=O)Nc3ccc(Cl)c(C(F)(F)F)c3)cc2)ccn1 [Sorafenib, 4-[4-[[4-chloro-3-(trifluoromethyl)phenyl]carbamoylamino]phenoxy]-N-methyl-pyridine-2-carboxamide]
inhibition at 4 µM ([1]; Homo sapiens, MKN-45, single treatment of sorafenib 4 μM (0 μg/mL of L3-1Y), 72 hours, read-out: cell growth inhibition rate): 30%
concentration of IC30 in MKN45 cell line ([1]; MKN45 cell line): 4 µM
cell growth inhibiting effect (EBC1 lung cancer cells): no cell growth inhibiting effect
Tumor Inhibition Rate at 21st day (%; compared to vehicle-treated group (0%)) [2]: 24.7%
Tumor Inhibition Rate at 21st day (%; compared to vehicle-treated group (0%)) (HT29 colon cancer cells [3]): 22.1%

B1: L3-1Y: anti-c-Met antibody: heavy chain variable region of huAbF46-H4-A1, human IgG2 hinge and IgG2 constant region, kappa light chain (antibody)
heavy: EVQLVESGGGLVQPGGSLRLSCAASGFTFTDYYMSWVRQAPGKGLEWLGFIRNKANGYTTEYSASVKGRFTISRDNSKNTLYLQMNSLRAEDTAVYYCARDNWFAYWGQGTLVTVSSASTKGPSVFPLAPCSRSTSESTAALGCLVKDYFPEPVTVSWNSGALTSGVHTFPAVLQSSGLYSLSSVVTVPSSNFGTQTYTCNVDHKPSNTKVDKTVERKCCVECPPCPAPPVAGPSVFLFPPKPKDTLMISRTPEVTCVVVDVSHEDPEVQFNWYVDGVEVHNAKTKPREEQFNSTFRVVSVLTVVHQDWLNGKEYKCKVSNKGLPAPIEKTISKTKGQPREPQVYTLPPSREEMTKNQVSLTCLVKGFYPSDIAVEWESNGQPENNYKTTPPMLDSDGSFFLYSKLTVDKSRWQQGNVFSCSVMHEALHNHYTQKSLSLSPGK
light: DIQMTQSPSSLSASVGDRVTITCKSSQSLLASGNQNNYLAWYQQKPGKAPKMLIIWASTRVSGVPSRFSGSGSGTDFTLTISSLQPEDFATYYCQQSYSRPYTFGQGTKVEIKRTVAAPSVFIFPPSDEQLKSGTASVVCLLNNFYPREAKVQWKVDNALQSGNSQESVTEQDSKDSTYSLSSTLTLSKADYEKHKVYACEVTHQGLSSPVTKSFNRGEC
cell growth inhibiting effect ([1]; L3-1Y 0-2 μg/mL alone or with sorafenib fixed at 4 μM, 72 hours): observed
cell growth inhibiting effect ([1]; L3-1Y 0.08 μg/mL, alone or with 4 μM sorafenib, 72 hours): only a little effect
cell growth inhibiting effect (EBC1 lung cancer cells): observed
cell growth inhibiting effect (HT29 colon cancer cells [4]): not observed
cell death / cell growth inhibiting effect [5]: not observed
Tumor Inhibition Rate at 21st day (%; compared to vehicle-treated group (0%)) [2]: 36.2%
tumor inhibiting effect (HT29 colon cancer cells [3]; same doses as Table 4): no tumor inhibiting effect
Tumor Inhibition Rate at 21st day (%; compared to vehicle-treated group (0%)) (HT29 colon cancer cells [3]): −0.9%
